Where a chain is given by its changes, count along the chain named.
T1: cynomolgus PRLR ECD (cynomolgus monkey)
T1 chain: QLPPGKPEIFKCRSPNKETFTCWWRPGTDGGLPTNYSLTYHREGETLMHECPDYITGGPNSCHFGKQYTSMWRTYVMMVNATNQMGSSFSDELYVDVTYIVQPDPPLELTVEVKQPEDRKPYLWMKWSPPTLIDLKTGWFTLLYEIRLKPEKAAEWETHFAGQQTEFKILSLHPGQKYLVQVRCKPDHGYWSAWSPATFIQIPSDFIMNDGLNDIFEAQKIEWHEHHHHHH

B1: HP-PR01B01 (antibody, V domains shown)
VH: EVHLVESGPDLVKPSQSLSLTCTVTGYSITSGYNWHWIRQFPGNKLEWMGYIHYSGSTKYDPSLKSRISFTRDTSRNQFFLQLNSVTTEDRATYYCARSEAGGYSWFAYWGQGTLVTVSA
VL: DIVMTQSPAIMSASPGEKVTMACSASSSVNYMHWYQQKSGTSPKRWIYDTSKLASGVPARFSGSGSGTSYSLTISSMEAEDAATYYCQQWSSNPLTFGAGTKLELK
B2: H-PR-B06 (antibody, V domains shown)
VH: DVKLVESGGGLVKPGGSLKLACAASGFTFSSYTMSWVRQTPEKRLEWVATISSGGSYTYYPDSVKGRFTISRDNAKNTLYLQLSSLKSEDTAMYYCTRDRYYSTTPDWYFDVWGAGTTVTVSS
VL: DIVLTQSPATLSVTPGDSVSLSCRATQIIFNNLHWYQQKSHESPRLLITYTSQSISGIPSRFSGSGSGTDFTLTINSVETEDFGMYFCQQSNTWPRTFGGGTKLEIK
B3: HP-PR02H02 (antibody, V domains shown)
VH: B2 VH with D1E, K3M, V119L
VL: B2 VL with L4I

Target: T1, cynomolgus PRLR ECD
Assay: ELISA

Binding result, no binding:
B1
B2
B3
